{"source": "paper PMC2148140", "biological_target": "human Erd2p (KDEL receptor) (human) (UniProt P24390)", "sequence (P24390 whole entry)": "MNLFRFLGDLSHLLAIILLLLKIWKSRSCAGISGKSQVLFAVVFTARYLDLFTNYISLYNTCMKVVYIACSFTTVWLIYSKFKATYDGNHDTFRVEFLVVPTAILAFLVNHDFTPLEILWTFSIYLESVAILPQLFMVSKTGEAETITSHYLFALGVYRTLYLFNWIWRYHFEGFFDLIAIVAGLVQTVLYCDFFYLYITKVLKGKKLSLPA", "test": "radioligand binding", "data": [{"substance": "cholera toxin A subunit (wild-type CTX-A), 125I-labelled (natural protein)", "values": [{"measurement": "binding at pH 6 as percent of the binding at pH 5", "value": 60, "unit": "%"}]}]}
